Experimental data: paper doi:10.1101/2022.01.21.477187

Molecular target: GMPCPP-stabilised rhodamine microtubules
Assay: single-molecule TIRF motility assay

| residency time on the microtubule [s] | landing rate (events μm^−1 min^−1) | processive landing rate (events μm^−1 min^−1) | Substance |
| --- | --- | --- | --- |
| 6.36 | – | – | CENP-E483 with a GCN4 leucine zipper domain fused to its C terminus (from UniProt Q02224 1-483) |
| 37.1 | 0.147 | 0.009 | full-length human CENP-E-mNeonGreen, Q02224 1-2701 |
